Here are results for one molecule from patent publication US20240299570A1 (CELGENE, published 2024).

The experiment deals with T1, BCMA on BCMA-positive myeloma cell lines (NCI-H929, ARP-1, U266B1) (Homo sapiens (Human), UniProt Q02223 1-184).
T1 sequence: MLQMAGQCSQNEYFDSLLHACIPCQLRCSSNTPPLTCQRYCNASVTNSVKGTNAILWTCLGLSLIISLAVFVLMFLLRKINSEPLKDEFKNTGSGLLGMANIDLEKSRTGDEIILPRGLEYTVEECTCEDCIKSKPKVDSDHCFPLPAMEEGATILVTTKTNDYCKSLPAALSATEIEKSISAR
As to the kind of experiment: cell-based or functional assay.

B1: Antibody 2265-F02 (antibody, V domains shown)
VH: EVQLVESGGGLVQPGGSLRLSCAASGFNISAPGIHWVRQAPGKGLEWVGFINPAGGYTDYADSVKGRFTISADTSKNTAYLQMNSLRAEDTAVYYCARDYIRQYWTYVLDYWGQGTLVTVSS
VL: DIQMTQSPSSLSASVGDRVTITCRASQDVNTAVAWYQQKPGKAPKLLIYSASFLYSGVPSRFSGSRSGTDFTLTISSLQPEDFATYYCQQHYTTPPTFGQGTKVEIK
For B1, the “ARP-1, Conjugate M 2° antibody cell killing, EC50” value amounted to 1.9 nM and the “U266B1, Conjugate M 2° antibody cell killing, EC50” value was 0.9 nM.
